According to patent US20190161756, “Anti-Immunoglobulin G Aptamers and Uses Thereof” (Laboratoire Francais du Fractionnement et des …, published 2019):

B1: A6-2 (ssDNA)
DNA: GGGTCAATGCCAGGTCTCCCCAGCCTCATCTCACGGCATAGTCTCGCCACACTGGAAATCGGCTCGCAAGCAGTC
modifications: 5' biotin-triethylene glycol spacer (SPR); 5' amino-C6 spacer and 3' idT (chromatography)
B2: A6-8 (ssDNA)
DNA: GGGTCAATGCCAGGTCTCCACGGTATAGTCTCGCCCAGTGCCCTTTGTTGGACTTCCTATCGGCTCGCAAGCAGTC
modifications: 5' biotin-triethylene glycol spacer
B3: A6-4 (ssDNA)
DNA: GGGTCAATGCCAGGTCTCAAGTTTGTGGGGCTGGGGTTCGGTCCTGGCACAAATTCGTATCGGCTCGCAAGCAGTC
modifications: 5' biotin-triethylene glycol spacer
B4: A6-3 (ssDNA)
DNA: GGGTCAATGCCAGGTCTCGACTATTCCTCCGGCCTCTTCCCTAATCAGTGGCATCTCTATCGGCTCGCAAGCAGTC
modifications: 5' biotin-triethylene glycol spacer

Legend:
Conditions in all cases: chain copies: 2; label: biotin
[1] = molecular target: T1, IgG4 (plasma IgG sub-class) (Homo sapiens, UniProt P01861-1 P01861-1:1-327); assay: SPR; pH 5.5; resistant to 2 M NaCl
T1 sequence (P01861 other isoform, or with tags, fused parts or gaps): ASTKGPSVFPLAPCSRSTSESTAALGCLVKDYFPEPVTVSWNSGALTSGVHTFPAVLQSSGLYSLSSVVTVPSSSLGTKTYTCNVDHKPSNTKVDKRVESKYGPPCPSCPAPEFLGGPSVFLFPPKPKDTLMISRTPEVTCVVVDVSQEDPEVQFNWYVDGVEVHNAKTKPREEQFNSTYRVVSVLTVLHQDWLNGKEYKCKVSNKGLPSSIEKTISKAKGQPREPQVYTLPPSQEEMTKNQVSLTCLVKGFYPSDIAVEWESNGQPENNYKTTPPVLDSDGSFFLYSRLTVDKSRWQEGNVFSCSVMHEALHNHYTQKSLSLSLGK

[2] = molecular target: T1, IgG4 (plasma IgG sub-class); assay: SPR; pH 5.5; resistant to 2 M NaCl; remark: listed apart in the source
Protocol: (§1) Plasma IgG's sub-classes were injected at pH 5.5 (in duplicates), whereby a complex was formed as evidenced by the increase of the signal. […] The solid support was then regenerated by injection of a solution of NaOH at 50 mM. X-axis: time in s. Y-axis: SPR response in arbitrary scale.
(§2) The selected aptamer was synthetized with Biotin and a triethylene glycol spacer at the 5′ end of the oligonucleotide. A 1 μM solution of the aptamer was prepared using the SELEX selection buffer. The aptamer solution was heated to 90° C. for 5 min, incubated on ice for 5 min and equilibrated to room temperature for 10 min. The preparation was injected on a streptavidin coated sensor chip SA of Biacore T200 instrument (GE Healthcare) at a flow rate of 10 μl/min for 7 min. Then, different concentrations of the target (Human polyclonal IgG, purified from human plasma with a purity of >95%) were injected to the immobilised aptamer at 30 μl/min for 1 minute. After dissociation for 1-2 min a wash step was performed by injecting a suitable wash buffer at 30 μl/min for 1 min. For elution, a suitable elution buffer was injected at 30 μl/min for 1-2 min Finally the sensor chip was regenerated by injection of 50 mM NaOH at 30 μl/min for 30 sec. During the course of the experiment the response signal was recorded in a sensorgram.

[3] = molecular target: T1, IgG4 (plasma IgG sub-class); assay: SPR; pH 5.5; faster association, partly eluted by 2 M NaCl
Protocol: as §1, §2

Binder | binding result [1] | also measured
B1 | binds | –
B2 | – | binding result [2]: binds
B3 | binds | –
B4 | – | binding result [3]: binds
